Experimental data published in patent US20230167185A1.

How the values were obtained:
[1] = target: UU24 (Clostridium tetani (tetanus toxin))
[2] = target: UU70 (Clostridium tetani (tetanus toxin))
[3] = target: UU71 (Clostridium tetani (tetanus toxin))
[4] = target: UU72 (Clostridium tetani (tetanus toxin))
[5] = target: UU73 (Clostridium tetani (tetanus toxin))
[6] = target: UU74 (Clostridium tetani (tetanus toxin))

| Binder | Kd [1] [nM] | koff [1] [s⁻¹] | kon [1] [M⁻¹ s⁻¹] | Kd [2] [nM] | koff [2] [s⁻¹] | kon [2] [M⁻¹ s⁻¹] | koff [3] [s⁻¹] | kon [3] [M⁻¹ s⁻¹] | koff [4] [s⁻¹] | kon [4] [M⁻¹ s⁻¹] | Kd [5] [nM] | koff [5] [s⁻¹] | kon [5] [M⁻¹ s⁻¹] | Kd [6] [nM] | koff [6] [s⁻¹] | kon [6] [M⁻¹ s⁻¹] | Kd [3] [nM] | Kd [4] [nM] |
| --- | --- | --- | --- | --- | --- | --- | --- | --- | --- | --- | --- | --- | --- | --- | --- | --- | --- | --- |
| IBIIICI scFv (scFv) scFv: EVRLLQSGAALVRPGASVKLSCTASGFNIKDFNIHWVKQRPEQGLEWIGRIDPENGDAEYVPKFQVRATMTTDTSSNTVYLHLSSLTSGDTAVYYCTTGSYDLDVEYWGQGTTLTVSSGGGGSGGGGSGGGGSGGGGSELQMTQSPSSLSASLGDTVTITCHASQNINVWLSWYQQRPGNIPKLLIYKASTLHTGVPSRFRGSGSGTGFTLTISSLQPEDIATYYCQQGQSYPLTFGAGTKLELK | 0.12 | 2.3e-05 | 190000 | 0.16 | 3.7e-05 | 230000 | < 1e-05 | 230000 | < 1e-05 | 250000 | 0.34 | 6.7e-05 | 200000 | 0.12 | 3.3e-05 | 280000 | – | – |
| 14GIIICII scFv (scFv) scFv: QVQLQQPGAELVMPGASVNLSCKASGYTFTDYWMHWVKQRPGQGLEWIGEIDPSDNFSNLNQNFRGKATLTVDKSSRTAFLQLSSLTSEDSAVYYCAVEDYWGQGTTLTVSSGGGGSGGGGSGGGGSGGGGSDIVMTQATPSVLVTPGEAVSISCRASRSLLHSNGITYLYWFLQRPGQSPQVLIYRMSNLVSGVPDRFSGSGSGTAFTLRISRVEAEDVGVYYCMQHLEFPYTFGGGTKLEIK | 0.3 | 0.0002 | 660000 | 0.29 | 0.00019 | 650000 | 0.00032 | 540000 | 0.00034 | 570000 | 0.87 | 0.00044 | 510000 | 1.7 | 0.00095 | 570000 | 0.6 | 0.6 |
